# B1: TCR2 (TCR, V domains shown)
# V domain 1: EDQVTQSPEALRLQEGESSSLNCSYTVSGLRGLFWYRQDPGKGPEFLFTLYSAGEEKEKERLKATLTKKESFLHITAPKPEDSATYLCAVQAWGGGSQGNLIFGKGTKLSVKP
# V domain 2: DSGVTQTPKHLITATGQRVTLRCSPRSGDLSVYWYQQSLDQGLQFLIQYYNGEERAKGNILERFSAQQFPDLHSELNLSSLELGDSALYFCASSAGDRGYEQYFGPGTRLTVTE
# Target: putative cross-reactive peptide arising from SH2D3A, on HLA-A*02:01 of T2 cells (human)
# Test: cell-based or functional assay
binder,measurement,value
B1,"EC50 in T2/peptide TDCC assay, against the DCAF4L2 target peptide",87 fold

# Source: US20250009799A1 (Amgen, published 2025)
